Data as given in patent publication US20230151091A1 (NEW YORK UNIVERSITY, published 2023).

Tests used:
[1] = molecular target: T1, mouse MuSK, endogenous (C2C12 myotubes; neuromuscular synapses of mice) (mouse, UniProt Q61006 22-868); assay: cell-based or functional assay
T1 sequence (looked up): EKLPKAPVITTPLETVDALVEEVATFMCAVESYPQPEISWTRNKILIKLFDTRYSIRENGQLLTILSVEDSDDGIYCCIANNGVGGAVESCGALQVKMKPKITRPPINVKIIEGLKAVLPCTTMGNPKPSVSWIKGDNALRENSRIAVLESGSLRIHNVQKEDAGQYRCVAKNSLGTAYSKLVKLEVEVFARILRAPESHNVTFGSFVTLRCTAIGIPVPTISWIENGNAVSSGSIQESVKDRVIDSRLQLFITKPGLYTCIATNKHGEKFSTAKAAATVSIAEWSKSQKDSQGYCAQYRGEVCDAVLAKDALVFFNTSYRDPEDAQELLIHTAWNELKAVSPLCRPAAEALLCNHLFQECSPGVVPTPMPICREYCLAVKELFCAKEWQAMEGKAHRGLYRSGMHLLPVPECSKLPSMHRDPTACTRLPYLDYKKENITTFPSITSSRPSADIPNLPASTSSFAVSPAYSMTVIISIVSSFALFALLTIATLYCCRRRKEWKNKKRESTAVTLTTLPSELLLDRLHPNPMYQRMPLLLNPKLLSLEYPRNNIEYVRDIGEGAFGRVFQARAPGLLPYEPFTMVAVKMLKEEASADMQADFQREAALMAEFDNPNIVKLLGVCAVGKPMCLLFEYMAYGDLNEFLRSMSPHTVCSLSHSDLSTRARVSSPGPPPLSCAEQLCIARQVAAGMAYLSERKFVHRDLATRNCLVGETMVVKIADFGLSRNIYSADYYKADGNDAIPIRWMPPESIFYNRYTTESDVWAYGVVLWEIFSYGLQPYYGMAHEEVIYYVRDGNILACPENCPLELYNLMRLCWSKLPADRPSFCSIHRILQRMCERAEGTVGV

[2] = molecular target: T2, cynomolgus monkey MuSK (cynomolgus monkey, UniProt A0A2K5USF6 24-487); assay: Biacore, MuSK on chip, association pH 7.4, dissociation pH 5.5
Method: (§1) For affinity determination, a CMS chip was coated with cynomolgus monkey, rat and mouse MuSK (200RU) and 66.7 nM of antibody was applied and kinetic parameters calculated (Table 8). The following conclusions could be drawn: (1) 3B2g1m3 and 3B2g2m3 (m3 variants) show significant drop in affinity for MuSK for all species tested; (2) 3B2g1m2 and 3B2g2m2 (m2 variants) show some drop in affinity for MuSK; (3) 3B2g1m1, 3B2g2m1, 3B2g1m4, 3B2g2m4 (ml and m4 variants) show no drop in affinity for MuSK for all species tested; and (4) for all clones there is no difference between g1 and g2 variants (VL methionine versus serine in CDR3).
(§2) In order to study pH dependent binding of our antibodies to MuSK, the same Biacore was used as above, but now dissociation was done at pH 5.5 instead of pH 7.4. […] The following conclusions could be drawn for the different variants: (1) 3B2g1m3 and 3B2g2m3 (m3 variants) show significant drop in affinity for MuSK for all species tested; (2) 3B2g1m2 and 3B2g2m2 (m2 variants) show some drop in affinity for MuSK; (3) 3B2g1m1, 3B2g2m1, 3B2g1m4, 3B2g2m4 (m1 and m4 variants) show no drop in affinity for MuSK for all species tested; and (4) for all clones there is no difference between g1 and g2 variants (VL methionine versus serine in CDR3).

[3] = molecular target: T3, mouse MuSK (mouse, UniProt Q61006 22-494, limits assumed); assay: as above
T3 construct: Coated on ELISA plates or on the Biacore chip; also called full length mouse MuSK; mouse MuSK (in house produced in HEK293 cells)
T3 sequence (looked up): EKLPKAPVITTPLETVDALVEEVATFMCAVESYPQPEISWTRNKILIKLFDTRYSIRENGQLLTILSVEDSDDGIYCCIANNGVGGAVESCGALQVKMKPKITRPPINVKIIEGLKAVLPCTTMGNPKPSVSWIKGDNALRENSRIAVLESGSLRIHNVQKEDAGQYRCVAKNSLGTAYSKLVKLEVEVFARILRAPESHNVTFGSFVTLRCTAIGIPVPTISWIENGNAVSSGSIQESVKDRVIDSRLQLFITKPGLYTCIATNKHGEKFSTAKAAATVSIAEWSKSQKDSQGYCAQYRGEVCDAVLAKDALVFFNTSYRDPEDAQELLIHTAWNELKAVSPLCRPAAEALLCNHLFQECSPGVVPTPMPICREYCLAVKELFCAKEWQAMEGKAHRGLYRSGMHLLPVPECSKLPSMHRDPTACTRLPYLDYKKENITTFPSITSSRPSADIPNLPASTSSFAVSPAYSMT
Method: as §1, §2

[4] = molecular target: T4, rat MuSK (rat, UniProt Q62838 22-494, limits assumed); assay: as above
T4 construct: Coated on Biacore chip (200RU) or ELISA plate
T4 sequence (looked up): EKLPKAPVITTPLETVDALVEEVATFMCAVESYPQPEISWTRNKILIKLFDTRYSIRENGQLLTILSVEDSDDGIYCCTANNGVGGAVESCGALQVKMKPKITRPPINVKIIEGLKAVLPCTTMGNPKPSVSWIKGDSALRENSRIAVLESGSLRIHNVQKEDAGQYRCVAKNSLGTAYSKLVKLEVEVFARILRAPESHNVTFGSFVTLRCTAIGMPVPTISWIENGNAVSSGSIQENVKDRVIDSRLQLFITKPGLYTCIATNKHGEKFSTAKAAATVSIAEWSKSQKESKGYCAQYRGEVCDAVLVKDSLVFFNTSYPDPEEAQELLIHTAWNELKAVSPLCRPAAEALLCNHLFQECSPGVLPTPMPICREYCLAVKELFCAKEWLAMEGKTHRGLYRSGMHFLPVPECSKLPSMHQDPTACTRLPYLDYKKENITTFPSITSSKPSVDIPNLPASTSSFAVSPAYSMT
Method: as §1, §2

[5] = molecular target: T2, cynomolgus monkey MuSK; assay: Biacore, MuSK on chip (200RU), 66.7 nM mAb, dissociation pH 7.4
Method: as §1

[6] = molecular target: T3, mouse MuSK; assay: as above
Method: as §1

[7] = molecular target: T4, rat MuSK; assay: as above
Method: as §1

T2 sequence (A0A2K5USF6 entry or part of it): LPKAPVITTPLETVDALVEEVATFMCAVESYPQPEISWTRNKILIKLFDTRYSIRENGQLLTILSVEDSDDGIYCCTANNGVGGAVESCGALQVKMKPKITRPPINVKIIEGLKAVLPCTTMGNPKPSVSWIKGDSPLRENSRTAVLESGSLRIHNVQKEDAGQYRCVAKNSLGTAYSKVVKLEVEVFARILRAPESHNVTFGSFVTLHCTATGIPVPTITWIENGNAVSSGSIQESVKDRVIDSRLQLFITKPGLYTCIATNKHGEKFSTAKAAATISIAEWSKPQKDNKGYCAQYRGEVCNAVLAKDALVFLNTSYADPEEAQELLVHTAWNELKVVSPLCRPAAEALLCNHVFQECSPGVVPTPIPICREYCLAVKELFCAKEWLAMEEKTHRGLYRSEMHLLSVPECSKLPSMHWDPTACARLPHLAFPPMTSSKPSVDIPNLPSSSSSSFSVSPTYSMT

B1: 3B2g2m4 (antibody, human IgG1, V domains shown)
VH: EVQLLESGGGLVQPGGSLRLSCAASGFTFSDYGMSWVRQAPGKGLEWVSAIPWQGGSTYYKESVKGRFTISRDNSKNTLYLQMNSLRAEDTAVYYCAKRSGRIAFGALDAWGQGTLVTVSS
VL: QTVVTQEPSFSVSPGGTVTLTCGLSSGSVTSSNYPDWYQQTPGQAPRTLIYSTDSRHSGVPDRFSGSILGNKAALTITGAQADDESDYYCGLYSYSGSKNYVFGGGTKLTVL
notes: human IgG1-LALA backbone; produced in HEK293 cells
MuSK phosphorylation in C2C12 myotubes [1]: ~58 % of 1 nM agrin
R0 [2]: 148 RU
koff [2]: 0.00256 s⁻¹
kon [2]: 750000 M⁻¹ s⁻¹
R0 [3]: 191 RU
koff [3]: 0.003 s⁻¹
kon [3]: 1.04e+06 M⁻¹ s⁻¹
R0 [4]: 172 RU
koff [4]: 0.00538 s⁻¹
kon [4]: 1.02e+06 M⁻¹ s⁻¹
R0 [5]: 142 RU
koff [5]: 0.00088 s⁻¹
kon [5]: 790000 M⁻¹ s⁻¹
R0 [6]: 193 RU
koff [6]: 0.00064 s⁻¹
kon [6]: 1.15e+06 M⁻¹ s⁻¹
R0 [7]: 158 RU
koff [7]: 0.00196 s⁻¹
kon [7]: 1.19e+06 M⁻¹ s⁻¹
